From patent publication US20250361274A1, “PEPTIDE AND PEPTIDE-CONTAINING AGENT” (PEPTIDREAM INC., priority 2022, published 2025)
Square brackets hold non-standard residues; d marks the D form. Ends that are not written are not given here. Ala(2-NH2-4-pyridyl) = Nc1cc(C[C@H](N)C(=O)O)ccn1; 3Pal(6-Ph) = N[C@@H](Cc1ccc(-c2ccccc2)nc1)C(=O)O; Phe(4-COOH) = N[C@@H](Cc1ccc(C(=O)O)cc1)C(=O)O; Bip = N[C@@H](Cc1ccc(-c2ccccc2)cc1)C(=O)O; cisHyp = O=C(O)[C@@H]1C[C@H](O)CN1; Hyp = O=C(O)[C@@H]1C[C@@H](O)CN1; NMeF = CN[C@@H](Cc1ccccc1)C(=O)O; Cha = N[C@@H](CC1CCCCC1)C(=O)O; Ahp(2) = CCCCC[C@H](N)C(=O)O; Chg = N[C@H](C(=O)O)C1CCCCC1; Abu = CC[C@H](N)C(=O)O

How the values were obtained:
BMP4 = target: T1, BMP4 (Homo sapiens, UniProt P12644); test: BMP4 signal transduction inhibitory activity: SMAD1 phosphorylation by BMP4 stimulus, AlphaLISA SureFire, A549 cells; format: cell-based; conditions: SMAD1 phosphorylation, BMP4 0.2 nM; peptide conc. in assay 0.2, 2, 20 nM
T1 sequence (P12644 293-408): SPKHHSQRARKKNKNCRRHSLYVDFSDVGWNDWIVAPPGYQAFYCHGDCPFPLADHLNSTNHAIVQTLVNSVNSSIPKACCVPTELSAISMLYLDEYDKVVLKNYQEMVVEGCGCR

BMP7 = target: T2, BMP7 (Homo sapiens, UniProt P18075); test: BMP7 signal transduction inhibitory activity: SMAD1 phosphorylation by BMP7 stimulus, A549 cells; format: cell-based; conditions: SMAD1 phosphorylation, BMP7 10 nM; peptide conc. in assay 1, 10, 100 nM
T2 sequence (P18075 293-431): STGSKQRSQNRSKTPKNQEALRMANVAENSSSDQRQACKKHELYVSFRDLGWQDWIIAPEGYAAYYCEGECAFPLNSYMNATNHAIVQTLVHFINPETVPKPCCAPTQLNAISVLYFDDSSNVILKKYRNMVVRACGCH
Outline: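 Inhibition is read as reduced BMP7-driven SMAD1 phosphorylation in human A549 cells, with the BMP7 stimulus at 10 nM. Three-point peptide concentrations spanned 1–1,000 nM depending on the peptide series. Some peptides received eight-point, 1/3-ratio titrations from 100 nM or 1,000 nM, alongside a Noggin control.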

| Substance | aLISA BMP4 (0.2 nM) % inh (BMP4) | aLISA BMP7 (10 nM) % inh (BMP7) |
| --- | --- | --- |
| 345 (FG[NMeF]G[Bip]GDD[Cha]A[NMeF][Ahp(2)]HCG-NH2; not fully specified (N-terminus, bridges)) [compound 345] | A (showed less than 30% of inhibitory activity in 2 nM-peptide-addition zone and showed 30% or more of inhibitory activity in 20 nM-addition zone) | D (showed less than 30% of inhibitory activity in 10 nM-addition zone and showed 30% or more of inhibitory activity in 100 nM-addition zone) |
| 346 (FG[NMeF]G[Bip]GDD[Cha]A[NMeF]IHCG-NH2; not fully specified (N-terminus, bridges)) [compound 346] | ND (the inhibitory activity was less than 30% at the maximum concentration evaluated) | D (showed less than 30% of inhibitory activity in 10 nM-addition zone and showed 30% or more of inhibitory activity in 100 nM-addition zone) |
| 347 (FG[NMeF]G[Bip]GDD[Cha]A[NMeF][Chg]HCG-NH2; not fully specified (N-terminus, bridges)) [compound 347] | ND (the inhibitory activity was less than 30% at the maximum concentration evaluated) | D (showed less than 30% of inhibitory activity in 10 nM-addition zone and showed 30% or more of inhibitory activity in 100 nM-addition zone) |
| 348 (FG[NMeF]G[Bip]GDD[Cha]A[NMeF]LACG-NH2; not fully specified (N-terminus, bridges)) [compound 348] | A (showed less than 30% of inhibitory activity in 2 nM-peptide-addition zone and showed 30% or more of inhibitory activity in 20 nM-addition zone) | D (showed less than 30% of inhibitory activity in 10 nM-addition zone and showed 30% or more of inhibitory activity in 100 nM-addition zone) |
| 349 (FG[NMeF]G[Bip]GDD[Cha]A[NMeF]LLCG-NH2; not fully specified (N-terminus, bridges)) [compound 349] | ND (the inhibitory activity was less than 30% at the maximum concentration evaluated) | D (showed less than 30% of inhibitory activity in 10 nM-addition zone and showed 30% or more of inhibitory activity in 100 nM-addition zone) |
| 350 (FG[NMeF]G[Bip]GDD[Cha]A[NMeF]L[Abu]CG-NH2; not fully specified (N-terminus, bridges)) [compound 350] | ND (the inhibitory activity was less than 30% at the maximum concentration evaluated) | D (showed less than 30% of inhibitory activity in 10 nM-addition zone and showed 30% or more of inhibitory activity in 100 nM-addition zone) |
| 351 (FG[NMeF]G[Bip]GDD[Cha]A[NMeF]L[Ala(2-NH2-4-pyridyl)]CG-NH2; not fully specified (N-terminus, bridges); also: cyclic peptide, ring closure not given here) [compound 351] | ND (the inhibitory activity was less than 30% at the maximum concentration evaluated) | D (showed less than 30% of inhibitory activity in 10 nM-addition zone and showed 30% or more of inhibitory activity in 100 nM-addition zone) |
| 352 (FG[NMeF]G[Bip]GDD[Cha]A[NMeF]LGCG-NH2; not fully specified (N-terminus, bridges); also: cyclic peptide, ring closure not given here) [compound 352] | ND (the inhibitory activity was less than 30% at the maximum concentration evaluated) | D (showed less than 30% of inhibitory activity in 10 nM-addition zone and showed 30% or more of inhibitory activity in 100 nM-addition zone) |
| 353 (FG[NMeF]G[Bip]GDD[Cha]A[NMeF]LSCG-NH2; not fully specified (N-terminus, bridges); also: cyclic peptide, ring closure not given here) [compound 353] | ND (the inhibitory activity was less than 30% at the maximum concentration evaluated) | D (showed less than 30% of inhibitory activity in 10 nM-addition zone and showed 30% or more of inhibitory activity in 100 nM-addition zone) |
| 354 (FG[NMeF]G[Bip]GDD[Cha]A[NMeF]LNCG-NH2; not fully specified (N-terminus, bridges)) [compound 354] | ND (the inhibitory activity was less than 30% at the maximum concentration evaluated) | D (showed less than 30% of inhibitory activity in 10 nM-addition zone and showed 30% or more of inhibitory activity in 100 nM-addition zone) |
| 355 (FG[NMeF]G[Bip]GDD[Cha]A[NMeF]L[Hyp]CG-NH2; not fully specified (N-terminus, bridges)) [compound 355] | A (showed less than 30% of inhibitory activity in 2 nM-peptide-addition zone and showed 30% or more of inhibitory activity in 20 nM-addition zone) | D (showed less than 30% of inhibitory activity in 10 nM-addition zone and showed 30% or more of inhibitory activity in 100 nM-addition zone) |
| 356 (FG[NMeF]G[Bip]GDD[Cha]A[NMeF]L[cisHyp]CG-NH2; not fully specified (N-terminus, bridges)) [compound 356] | A (showed less than 30% of inhibitory activity in 2 nM-peptide-addition zone and showed 30% or more of inhibitory activity in 20 nM-addition zone) | C (showed less than 30% of inhibitory activity in a zone to which the peptide was added in an amount of 1 nM and showed 30% or more of inhibitory activity in 10 nM-addition zone) |
| 357 (FG[NMeF]G[Bip]GDD[Cha]A[NMeF]L[Phe(4-COOH)]CG-NH2; not fully specified (N-terminus, bridges)) [compound 357] | ND (the inhibitory activity was less than 30% at the maximum concentration evaluated) | D (showed less than 30% of inhibitory activity in 10 nM-addition zone and showed 30% or more of inhibitory activity in 100 nM-addition zone) |
| 358 (FG[NMeF]G[Bip]GDE[Cha]A[NMeF]LHCG-NH2; not fully specified (N-terminus, bridges)) [compound 358] | ND (the inhibitory activity was less than 30% at the maximum concentration evaluated) | D (showed less than 30% of inhibitory activity in 10 nM-addition zone and showed 30% or more of inhibitory activity in 100 nM-addition zone) |
| 359 (FG[NMeF]G[Bip]GDE[Cha]A[NMeF]L[Abu]CG-NH2; not fully specified (N-terminus, bridges)) [compound 359] | ND (the inhibitory activity was less than 30% at the maximum concentration evaluated) | D (showed less than 30% of inhibitory activity in 10 nM-addition zone and showed 30% or more of inhibitory activity in 100 nM-addition zone) |
| 360 (FG[NMeF]G[Bip]GDE[Cha]A[NMeF]L[Ala(2-NH2-4-pyridyl)]CG-NH2; not fully specified (N-terminus, bridges)) [compound 360] | ND (the inhibitory activity was less than 30% at the maximum concentration evaluated) | D (showed less than 30% of inhibitory activity in 10 nM-addition zone and showed 30% or more of inhibitory activity in 100 nM-addition zone) |
| 361 (FG[NMeF]G[Bip]GDE[Cha]A[NMeF]L[Phe(4-COOH)]CG-NH2; not fully specified (N-terminus, bridges)) [compound 361] | ND (the inhibitory activity was less than 30% at the maximum concentration evaluated) | D (showed less than 30% of inhibitory activity in 10 nM-addition zone and showed 30% or more of inhibitory activity in 100 nM-addition zone) |
| 362 (FG[NMeF]GFGDE[Cha]A[NMeF]LHCG-NH2; not fully specified (N-terminus, bridges)) [compound 362] | ND (the inhibitory activity was less than 30% at the maximum concentration evaluated) | D (showed less than 30% of inhibitory activity in 10 nM-addition zone and showed 30% or more of inhibitory activity in 100 nM-addition zone) |
| 363 (FG[NMeF]G[3Pal(6-Ph)]GDE[Cha]A[NMeF]LHCG-NH2; not fully specified (N-terminus, bridges)) [compound 363] | ND (the inhibitory activity was less than 30% at the maximum concentration evaluated) | D (showed less than 30% of inhibitory activity in 10 nM-addition zone and showed 30% or more of inhibitory activity in 100 nM-addition zone) |
| 364 (FG[NMeF]G[Bip]GDE[Cha]Q[NMeF]LHCG-NH2; not fully specified (N-terminus, bridges)) [compound 364] | ND (the inhibitory activity was less than 30% at the maximum concentration evaluated) | D (showed less than 30% of inhibitory activity in 10 nM-addition zone and showed 30% or more of inhibitory activity in 100 nM-addition zone) |
| 365 (FG[NMeF]G[Bip]GDE[Cha][Abu][NMeF]LHCG-NH2; not fully specified (N-terminus, bridges)) [compound 365] | ND (the inhibitory activity was less than 30% at the maximum concentration evaluated) | D (showed less than 30% of inhibitory activity in 10 nM-addition zone and showed 30% or more of inhibitory activity in 100 nM-addition zone) |
